Columns and labels:
[1] = target: T1, cynomolgus PD-1 (#PD1-C52H5, AcroBiosystems) (cynomolgus monkey, UniProt B0LAJ3 25-170); test: SPR, PD-1 on captured IgG1
T1 construct: bought; also called cynomolgus monkey PD-1; not shown: the vendor's tag on the recombinant protein (AcroBiosystems #PD1-C52H5)

[2] = target: T2, human PD-1 (#PD1-H82E4, AcroBiosystems) (human, UniProt Q15116 25-167); test: SPR, PD-1 on captured IgG1
T2 construct: bought

[3] = target: T3, Recombinant hIL-21-Fc (AcroBiosystems) (human, UniProt Q9HBE4 30-162); test: SPR, Fab on captured rhIL-21-Fc
T3 construct: bought; also called rhIL-21; not shown: Fc of the bought reagent, not described
T3 sequence (Q9HBE4 30-162): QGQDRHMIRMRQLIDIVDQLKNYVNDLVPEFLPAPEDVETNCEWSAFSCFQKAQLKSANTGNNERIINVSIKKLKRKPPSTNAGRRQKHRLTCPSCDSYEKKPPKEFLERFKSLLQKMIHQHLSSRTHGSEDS

[4] = target: T4, rhIL-21-His (AB235875-1001, Abcam) (human, UniProt Q9HBE4 30-162); test: SPR, Fab on captured rhIL-21-His
T4 construct: bought; not shown: His tag, length and position not described
T4 sequence (Q9HBE4 30-162 limits assumed): as the sequence (Q9HBE4 30-162) above

T2 sequence (Q15116 25-167 limits assumed): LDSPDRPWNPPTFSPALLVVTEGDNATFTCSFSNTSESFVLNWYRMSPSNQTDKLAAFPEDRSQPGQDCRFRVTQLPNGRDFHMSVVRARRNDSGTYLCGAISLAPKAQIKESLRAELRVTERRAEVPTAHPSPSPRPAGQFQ
T1 sequence (B0LAJ3 entry or part of it limits assumed, form in doubt): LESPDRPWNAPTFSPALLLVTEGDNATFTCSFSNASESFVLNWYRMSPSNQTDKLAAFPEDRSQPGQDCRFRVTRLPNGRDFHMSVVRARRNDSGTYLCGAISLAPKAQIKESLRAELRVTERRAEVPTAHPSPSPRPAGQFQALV

| Kd [4] | koff [4] | kon [4] | Binder | also measured |
| --- | --- | --- | --- | --- |
| – | – | – | 21A08Ap1 (antibody, human IgG1, V domains shown, human IgG1; also called anti-PD-1 antibody clone 21A08Ap1) VH: EVQLLESGGGLVQPGGSLRLSCAASGFTFSINAMTWVRQAPGKGLEWVSTISGSGFSTYYADSLKGRFTISRDNSKNTLYLQMNSLRAEDTAVYYCAKEVYGDYWGQGTLVTVSS VL: RSVLTQPPSASGTPGQRVSISCSGASSNIGSQSVFWYQQLPGTAPKLLIYSNNQRPSGVPDRFSGSKSGTSASLAISGLRSEDEADYYCAAWDDSLSIWVFGGGTKLTVL | Kd [1]: 1.25 nM; koff [1]: 0.000259 s⁻¹; kon [1]: 206000 M⁻¹ s⁻¹; Kd [2]: 1.27 nM; koff [2]: 0.00011 s⁻¹; kon [2]: 86800 M⁻¹ s⁻¹ |
| – | – | – | JOH712 (antibody, human IgG1, V domains shown, human IgG1) VH: EVQLLESGGGLVQPGGSLRLSCAASGFTFSINAMTWVRQAPGKGLEWVSTISGSGFSTYYADSLKGRFTISRDNSKNTLYLQMNSLRAEDTAVYYCAKEVYGDYWGQGTLVTVSS VL: RSVLTQPPSASGTPGQRVSISCSGASSNIGSQSVFWYQQHPGTAPKLLIYSNNQRPSGVPDRFSGSKSGTSASLAISGLRSEDEADYYCAAWDDSLSIWVFGGGTKLTVL | Kd [1]: 1.11 nM; koff [1]: 0.000252 s⁻¹; kon [1]: 227000 M⁻¹ s⁻¹; Kd [2]: 0.546 nM; koff [2]: 8.88e-05 s⁻¹; kon [2]: 163000 M⁻¹ s⁻¹ |
| – | – | – | GZZ692 (antibody, human IgG1, V domains shown, human IgG1) VH: EVQLLESGGGLVQPGGSLRLSCAASGFTFSINAMTWVRQAPGKGLEWVSTISGSGFSTYYADSLKGRFTISRDNSKNTLYLQMNSLRAEDTAVYYCAKEVYGDYWGQGTLVTVSS VL: RSVLTQPPSASGTPGQRVSISCSGASSNIGSQSVFWYQQLPGTAPKLLGYSNNQRPSGVPDRFSGSKSGTSASLAISGLRSEDEADYYCAAWDDSLSIWVFGGGTKLTVL | Kd [1]: 4.5 nM; koff [1]: 0.00153 s⁻¹; kon [1]: 340000 M⁻¹ s⁻¹; Kd [2]: 1.41 nM; koff [2]: 0.000209 s⁻¹; kon [2]: 148000 M⁻¹ s⁻¹ |
| – | – | – | GDY271 (antibody, human IgG1, V domains shown, human IgG1) VH: EVQLLESGGGLVQPGGSLRLSCAASGFTFSINAMTWVRQAPGKGLEWVSTISGSGFSTYYADSLKGRFTISRDNSKNTLYLQMNSLRAEDTAVYYCAKEVYGDYWGQGTLVTVSS VL: RSVLTQPPSASGTPGQRVSISCSGASSNIGSQSVYWYQQLPGTAPKLLIYSNNQRPSGVPDRFSGSKSGTSASLAISGLRSEDEADYYCAAWDDSLSIWVFGGGTKLTVL | Kd [1]: 6.38 nM; koff [1]: 12.2 s⁻¹; kon [1]: 1.91e+09 M⁻¹ s⁻¹; Kd [2]: 3.56 nM; koff [2]: 0.0013 s⁻¹; kon [2]: 364000 M⁻¹ s⁻¹ |
| – | – | – | FHX509 (antibody, human IgG1, V domains shown, human IgG1) VH: EVQLLESGGGLVQPGGSLRLSCAASGFTFSINAMTWVRQAPGKGLEWVSTISGSGFSTYYADSLKGRFTISRDNSKNTLYLQMNSLRAEDTAVYYCAKEVYGDYWGQGTLVTVSS VL: RSVLTQPPSASGTPGQRVSISCSGASSNIGSQSVFWYQQLPGTAPKLLIYSNNQRPSGVPDRFSGSKSGTSASLAISGLRSEDEADYYCAAWDDSLSAWVFGGGTKLTVL | Kd [1]: 0.699 nM; koff [1]: 0.000239 s⁻¹; kon [1]: 341000 M⁻¹ s⁻¹; Kd [2]: 0.694 nM; koff [2]: 8.38e-05 s⁻¹; kon [2]: 121000 M⁻¹ s⁻¹ |
| 0.313 nM | 6.91e-05 s⁻¹ | 221000 M⁻¹ s⁻¹ | ZAP122 Fab (Fab, V domains shown, Fab; also called ZAP122 wt) VH: QVQLQESGPGLVKPSETLSLTCTVSGGSISSDFWGWIRQPPGKGLEWIGYISSRGSTNYNPSLKRRVTISVDTSRNQFSLKLSSVTAADTAVYYCARSAGVTDFDFWGQGTLVTVSS VL: DIQMTQSPSSVSASVGDRVTITCRASQGISSWLAWYQHKPGKAPKLLIYVASSLQSGVPSRFSGSGSGTDFTLTISSLQPEDFATYYCQQANSFPLTFGGGTKVEIK | Kd [3]: < 0.0265 nM; koff [3]: < 1e-05 s⁻¹; kon [3]: 377000 M⁻¹ s⁻¹ |
| 0.69 nM | 0.00015 s⁻¹ | 210000 M⁻¹ s⁻¹ | MEK904 Fab (Fab, V domains shown, Fab) VH: QVQLQESGPGLVKPSETLSLTCTVSGGSISSDYWGWIRQPPGKGLEWIGYISYRGSTNYNPSLKSRVTISVDTSRNQFSLKLSSVTAADTAVYYCARSAGVADFDFWGQGTLVTVSS VL: DIQLTQSPSSVSASVGDRVTITCRASQGISSWLAWYQHKPGKAPKLLIYVASSLQSGVPSRFSGSGSGTDFTLTISSLQPEDFATYYCQQASSFPLTFGGGTKVEIK | – |
| 0.73 nM | 0.0001 s⁻¹ | 140000 M⁻¹ s⁻¹ | VPH777 Fab (Fab, V domains shown, Fab) VH: QVQLQESGPGLVKPSETLSLTCTVSGGSISSDYWGWIRQPPGKGLEWIGYISSSGSTNYNPSLKSRVTISVDTSRNQFSLKLSSVTAADTAVYYCARSAGVADFDFWGQGTLVTVSS VL: DIQLTQSPSSVSASVGDRVTITCRASQGISSWLAWYQHKPGKAPKLLIYVASSLQSGVPSRFSGSGSGTDFTLTISSLQPEDFATYYCQQASSFPLTFGGGTKVEIK | – |
| 0.82 nM | 0.0002 s⁻¹ | 250000 M⁻¹ s⁻¹ | EJT070 Fab (Fab, V domains shown, Fab) VH: QVQLQESGPGLVKPSETLSLTCTVSGGSISSDYWGWIRQPPGKGLEWIGYISYSGSTNYNPSLKSRVTISVDTSRNQFSLKLSSVTAADTAVYYCARSAGVADFDFWGQGTLVTVSS VL: DIQLTQSPSSVSASVGDRVTITCRASQGISSWLAWYQHKPGKAPKLLIYVASSLQSGVPSRFSGSGSGTDFTLTISSLQPEDFATYYCQQASSFPLTFGGGTKVEIK | – |
| 0.56 nM | 0.00015 s⁻¹ | 270000 M⁻¹ s⁻¹ | JSQ278 Fab (Fab, V domains shown, Fab) VH: QVQLQESGPGLVKPSETLSLTCTVSGGSISSDYWGWIRQPPGKGLEWIGYISYRGSTNYNPSLKSRVTISVDTSRNQFSLKLSSVTAADTAVYYCARSAGVTDFDAWGQGTLVTVSS VL: DIQLTQSPSSVSASVGDRVTITCRASQGISSWLAWYQHKPGKAPKLLIYVASSLQSGVPSRFSGSGSGTDFTLTISSLQPEDFATYYCQQASSFPLTFGGGTKVEIK | – |
| 7.04 nM | 0.00484 s⁻¹ | 688000 M⁻¹ s⁻¹ | ZXI489 Fab (Fab, V domains shown, Fab) VH: QVQLQESGPGLVKPSETLSLTCTVSGGSISSDYWGWIRQPPGKGLEWIGYISYRGSTNYNPSLKSRVTISVDTSRNQFSLKLSSVTAADTAVYYCARSAGVTDFDWWGQGTLVTVSS VL: DIQLTQSPSSVSASVGDRVTITCRASQGISSWLAWYQHKPGKAPKLLIYVASSLQSGVPSRFSGSGSGTDFTLTISSLQPEDFATYYCQQASSAPLTFGGGTKVEIK | – |
| 0.98 nM | 0.00014 s⁻¹ | 140000 M⁻¹ s⁻¹ | PAI969 Fab (Fab, V domains shown, Fab) VH: QVQLQESGPGLVKPSETLSLTCTVSGGSISSDYWGWIRQPPGKGLEWIGYISSSGSTNYNPSLKSRVTISVDTSRNQFSLKLSSVTAADTAVYYCARSAGVADFDAWGQGTLVTVSS VL: DIQLTQSPSSVSASVGDRVTITCRASQGISSWLAWYQHKPGKAPKLLIYVASSLQSGVPSRFSGSGSGTDFTLTISSLQPEDFATYYCQQASSFPLTFGGGTKVEIK | – |
| 2 nM | 0.00017 s⁻¹ | 87000 M⁻¹ s⁻¹ | OWS965 Fab (Fab, V domains shown, Fab) VH: QVQLQESGPGLVKPSETLSLTCTVSGGSISSDYWGWIRQPPGKGLEWIGYISYSGSTNYNPSLKSRVTISVDTSRNQFSLKLSSVTAADTAVYYCARSAGVADFDAWGQGTLVTVSS VL: DIQLTQSPSSVSASVGDRVTITCRASQGISSWLAWYQHKPGKAPKLLIYVASSLQSGVPSRFSGSGSGTDFTLTISSLQPEDFATYYCQQASSFPLTFGGGTKVEIK | – |
| 0.81 nM | 0.00011 s⁻¹ | 140000 M⁻¹ s⁻¹ | UER756 Fab (Fab, V domains shown, Fab) VH: QVQLQESGPGLVKPSETLSLTCTVSGGSISSDYWGWIRQPPGKGLEWIGYISSSGSTNYNPSLKSRVTISVDTSRNQFSLKLSSVTAADTAVYYCARSAGVTDFDAWGQGTLVTVSS VL: DIQLTQSPSSVSASVGDRVTITCRASQGISSWLAWYQHKPGKAPKLLIYVASSLQSGVPSRFSGSGSGTDFTLTISSLQPEDFATYYCQQASSFPLTFGGGTKVEIK | – |
| 15.6 nM | 0.0222 s⁻¹ | 1.42e+06 M⁻¹ s⁻¹ | IOO459 Fab (Fab, V domains shown, Fab) VH: QVQLQESGPGLVKPSETLSLTCTVSGGSISSDYWGWIRQPPGKGLEWIGYISSRGSTNYNPSLKRRVTISVDTSRNQFSLKLSSVTAADTAVYYCARSAGVADFDFWGQGTLVTVSS VL: DIQMTQSPSSVSASVGDRVTITCRASQGISSWLAWYQHKPGKAPKLLIYVASSLQSGVPSRFSGSGSGTDFTLTISSLQPEDFATYYCQQANSAPLTFGGGTKVEIK | – |
| 1.1 nM | 0.00015 s⁻¹ | 130000 M⁻¹ s⁻¹ | RPD212 Fab (Fab, V domains shown, Fab) VH: QVQLQESGPGLVKPSETLSLTCTVSGGSISSDYWGWIRQPPGKGLEWIGYISYSGSTNYNPSLKSRVTISVDTSRNQFSLKLSSVTAADTAVYYCARSAGVTDFDAWGQGTLVTVSS VL: DIQLTQSPSSVSASVGDRVTITCRASQGISSWLAWYQHKPGKAPKLLIYVASSLQSGVPSRFSGSGSGTDFTLTISSLQPEDFATYYCQQASSFPLTFGGGTKVEIK | – |
| 0.55 nM | 0.00015 s⁻¹ | 270000 M⁻¹ s⁻¹ | CLJ397 Fab (Fab, V domains shown, Fab) VH: QVQLQESGPGLVKPSETLSLTCTVSGGSISSDYWGWIRQPPGKGLEWIGYISYRGSTNYNPSLKSRVTISVDTSRNQFSLKLSSVTAADTAVYYCARSAGVADFDAWGQGTLVTVSS VL: DIQLTQSPSSVSASVGDRVTITCRASQGISSWLAWYQHKPGKAPKLLIYVASSLQSGVPSRFSGSGSGTDFTLTISSLQPEDFATYYCQQASSFPLTFGGGTKVEIK | – |
| 8.28 nM | 0.00233 s⁻¹ | 281000 M⁻¹ s⁻¹ | IFQ920 Fab (Fab, V domains shown, Fab) VH: QVQLQESGPGLVKPSETLSLTCTVSGGSISSDFWGWIRQPPGKGLEWIGYISSRGSTNYNPSLKRRVTISVDTSRNQFSLKLSSVTAADTAVYYCARSAGVADFDFWGQGTLVTVSS VL: DIQMTQSPSSVSASVGDRVTITCRASQGISSWLAWYQHKPGKAPKLLIYVASSLQSGVPSRFSGSGSGTDFTLTISSLQPEDFATYYCQQANSAPLTFGGGTKVEIK | – |
